For 1 substance, stoichiometry N results are on record in paper PMC12629992.

The assay addresses native myeloperoxidase monomer (one heavy and one light chain) (human) (UniProt P05164). Kind of assay: mass photometry; native MPO 100 nM in 20 mM HEPES pH 7.5, 200 mM NaCl, without or with 10 or 50 mM DTT, diluted 1:10 before measuring; dimer to monomers.

For the substance “native myeloperoxidase monomer (one heavy and one light chain) (from UniProt P05164 279-745) (enzyme)”, the stoichiometry N (as a rule, the number of molecules, sites or subunits per partner or assembly) was 2.
